# Results as given in paper PMC10308189 (Bio-protocol, 2023).
# B1: human amphiphysin 1 N-BAR domain (1-247) (domain or fragment, UniProt P49418 1-247, looked up)
# chain: MADIKTGIFAKNVQKRLNRAQEKVLQKLGKADETKDEQFEEYVQNFKRQEAEGTRLQRELRGYLAAIKGMQEASMKLTESLHEVYEPDWYGREDVKMVGEKCDVLWEDFHQKLVDGSLLTLDTYLGQFPDIKNRIAKRSRKLVDYDSARHHLEALQSSKRKDESRISKAEEEFQKAQKVFEEFNVDLQEELPSLWSRRVGFYVNTFKNVSSLEAKFHKEIAVLCHKLYEVMTKLGDQHADKAFTIQG
# Biological target: the molecule itself
# Test: SEC
protein,measurement,value
B1,stoichiometry N,2
